In patent US20240254227A1 (Alector, published 2024):
Numbering of substitutions follows the chain as printed.

T1: human CD300LB on primary human macrophages (human, UniProt A8K4G0 18-201)
T1 sequence: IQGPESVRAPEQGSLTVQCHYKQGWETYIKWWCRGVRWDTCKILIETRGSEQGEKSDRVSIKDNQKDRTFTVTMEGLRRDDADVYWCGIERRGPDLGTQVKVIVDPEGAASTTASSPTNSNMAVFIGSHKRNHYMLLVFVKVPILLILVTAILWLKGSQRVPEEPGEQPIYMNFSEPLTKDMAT

T2: human CD300LB on primary human monocytes (human, UniProt A8K4G0 18-201)
T2 construct: Endogenous protein on primary cells; that the target is CD300LB is inferred from the antibodies being anti-CD300LB antibodies; also called Monocyte donor 1281; Monocyte donor 1282
T2 sequence: T1 sequence

T3: recombinant human CD300LB overexpressed on Jurkat cells (human, UniProt A8K4G0 18-201)
T3 construct: also called huCD300LB; huCD300LB-expressing Jurkat cells
T3 sequence: T1 sequence

B1: anti-CD300LB antibody CD-07 (antibody, V domains shown)
VH: QVQLVQSGAEVKKPGASVKVSCKASGYTFTNYRMHWVRQAPGQGLEWMGWINPNSGGTIYAQKFQGRVTMTRDTSTSTVYMELSSLRSEDTAVYYCARDLDYWGQGTLVTVSS
VL: DIQMTQSPSSLSASVGDRVTITCQASQDISNYLNWYQQKPGKAPKLLIYGASSLQSGVPSRFSGSGSGTDFTLTISSLQPEDFATYYCQQSYSTPWTFGPGTKVEIK
B2: anti-CD300LB antibody CD-05 (antibody, V domains shown)
VH: QVQLVQSGAEVKKPGASVKVSCKASGYTFSRYYINWVRQAPGQGLEWMGWINPNSGGTNYAQKFQGRVTMTRDTSTSTVYMELSSLRSEDTAVYYCTTDQLRFGKTGPYYGMDVWGQGTTVTVSS
VL: B1 VL with Q24R, D28N, S30G, N31T, G50A, T94D, P95T, W96L, P100G
B3: anti-CD300LB antibody CD-01 (antibody, V domains shown)
VH: RVQLQQSGAELVRPGASVTLSCKASGFTFTDFEMHWVKKTPVHGLEWIGAIDPESGNTAYNQKFRGKATLTADKSSSTAYMELRYLTSEDSAVYYCTPLISGADYWGQGTTLTVSS
VL: DVVMTQSPLSLPVSLGDQASISCRSSQSLVHSDGNTYLYWYLQKPGQSPKLLIYKVSNRFSGVPDRFSGSGSGTDFTFKISRVGAEDLGVYFCSQSTHVPWTFGGGTKLEII
B4: anti-CD300LB antibody CD-02 (antibody, V domains shown)
VH: QVQLQQPGAELVRPGSSVKLSCQASGYTFTNYWMHWVRQRPIQGLEWIGNIDPSDSETHYNQKFKDRATLTVDKSSSTAYMQLSSLTSEDSAVYYCARSGVYDDEGGDYWGQGTTLTVSS
VL: ENVLTQSPAIMSASPGEKVTMTCSASSSVSYIHWYQQKSSTSPKLWIYDTSKLASGVPGRFSGSGSGNSYSLTISSMETEDVATYYCFQGSGYPLTFGAGTKLELK
B5: anti-CD300LB antibody CD-06 (antibody, V domains shown)
VH: QVQLVQSGAEVKKPGASVKVSCKASGYTFTTYAVHWVRQAPGQGLEWMGIVNPNSGGTNYAQKFQGRVTMTRDTSTSTVYMELSSLRSEDTAVYYCARDIVPMNNFYNYYYGMDVWGQGTTVTVSS
VL: B1 VL with Q24R, D28S, N31S, G50A, A51T, S53T, S93R, T94I, W96Y, P100Q

Experiments:
[1] = biological target: T1, human CD300LB on primary human …; test: flow cytometry, primary human macrophages donor 1278, 10 ug/mL antibody, isotype control subtracted
Experimental: (§1) Human monocytes from various donors were isolated from whole blood using RosetteSep Human Monocyte Enrichment Cocktail (Stemcell technologies) and Ficoll centrifugation per manufacturer protocols. After lysing red blood cells with ACK lysing buffer, monocytes were resuspended in complete media (RPMI, 10% FBS, Pen/Strep, L-glutamine, HEPES, non-essential amino acid, Sodium pyruvate). To obtain macrophages from these isolated monocytes, 100 ng/ml human M-CSF and 8% v/v human serum were added to the cells for 5-7 days. Cells were counted on the day of the experiment and plated at 100,000 cells per well in a round-bottom 96 well plate. Cells were incubated with TruStain Fc block and 10 μg/mL antibody for 1 hour on ice before washing with 250 μL ice cold PBS twice. Cells were then incubated with the appropriate APC-conjugated secondary antibodies for 20 minutes in the dark on ice. Finally, cells were washed twice with ice cold FACS buffer and then resuspended in 100 μL FACS buffer containing 1% propidium iodide. Samples were immediately analyzed using a BD FACSCanto flow cytometer. The gMFI was calculated using FlowJo software minus the gMFI of the appropriate isotype control.

[2] = biological target: T4, huCD300LB-DAP12 fusion constitutively expressed on 293 Freestyle (Freestyle HEK) cells (human); test: flow cytometry, geometric mean (APC-A), FreeStyle HEK cells expressing huCD300LB
T4 construct: also called Human CD300LB-DAP12 chimera
Experimental: Other members of the human CD300 family share sequence homology with human CD300LB. Thus, counter screens against binding of the anti-CD300LB antibodies to huCD300A, huCD300C, huCD300LD, huCD300E, huCD300LF, and huCD300G by stable overexpression in Freestyle HEK cells (generation of which is described above) were performed as follows. Cells were counted and labeled with 200 nM CFSE, 500 nM VioBlue, or a combination of the two to discriminate between CD300LB, Parental cells, and the other CD300 family members. Cells were washed thoroughly with PBS containing 2% fetal bovine serum then resuspended at a total of 240,000 cells per well. Hybridoma supernatants (100 L) or purified antibodies at various concentrations were added and incubated for one hour before the cells were washed twice again and stained with an APC-labeled anti-human or anti-mouse secondary antibody. Cells were then analyzed using a BD FACSCanto II. Anti-CD300LB antibodies were analyzed for specific binding to human CD300LB by FlowJo software by gating on live cells, then the APC geometric mean fluorescence intensity (gMFI) calculated for each labeled population. The results are shown in […]

[3] = biological target: T2, human CD300LB on primary human monocytes; test: flow cytometry, primary human monocytes donor 1281, 10 ug/mL antibody, isotype control subtracted
Experimental: as §1

[4] = biological target: T3, recombinant human CD300LB overexpressed …; test: flow cytometry on Jurkat cells overexpressing huCD300LB, apparent KD (Drake & Klakamp fit)
Experimental: Purified anti-CD300LB antibodies of the present disclosure were evaluated for their binding affinity to either Jurkat cells overexpressing recombinant huCD300LB or BaF/3 cells overexpressing recombinant muCD300LB. Binding of anti-CD300LB antibodies to the cells was determined as follows. Cells were harvested, washed, and labeled with propidium iodide for viability discrimination. After washing the cells with PBS, 1×10⁵ cells were aliquoted per well in 96-well U-bottom plates and incubated with 100 μL of purified anti-CD300LB antibody at various concentrations in FACS buffer (PBS+2% FBS). After this primary incubation, the supernatant was removed via centrifugation, the cells washed twice with 150 μL of ice-cold FACS buffer, and then incubated with the appropriate secondary antibody on ice for 30 minutes. Following the secondary antibody incubation, the cells were again washed twice with ice-cold FACS buffer and resuspended in a final volume of 200 L FACS buffer. Flow cytometry analysis was then performed using the FACSCanto system (BD Biosciences).
To determine affinity, antibodies at increasing concentrations were used to stain Jurkat cells overexpressing huCD300LB and geometric MFI values measured by the flow cytometer were analyzed on Prism (Graphpad) software.

[5] = biological target: T2, human CD300LB on primary human monocytes; test: flow cytometry, primary human monocytes donor 1283, 10 ug/mL antibody, isotype control subtracted
Experimental: as §1

Binder | gMFI [1] [gMFI] | EC50 (read off the curve) [2] [nM] | gMFI [3] [gMFI] | Kd [4] [nM] | gMFI [5] [gMFI] | binding result [2]
B1 | 211000 | ~20 | 43 | 66 | 47 | –
B2 | 175000 | – | 736 | 15 | 935 | –
B3 | – | – | – | 27 | – | no binding
B4 | – | – | – | 64 | – | no binding
B5 | 169000 | – | 1650 | 329 | 2470 | –
